Earlier results, collected in patent publication US5866683A, “Isoelectric point markers for isoelectric focusing with fluorescence detection” (Laboratory of Molecular Biophotonics, priority 1995, dated 1999).
Several values for one entry are separate records, joined by “and”; a condition that tells them apart may be missing. Equal entries are not always repeated.

B1: lentilectin (protein, UniProt P02870 31-210; P02870 218-269, looked up)
Lectin beta chain: TETTSFSITKFSPDQKNLIFQGDGYTTKGKLTLTKAVKSTVGRALYSTPIHIWDRDTGNVANFVTSFTFVIDAPSSYNVADEFTFFIAPVDTKPQTGGGYLGVFNSKEYDKTSQTVAVEFDTFYNAAWDPSNKERHIGIDVNSIKSVNTKSWNLQNGERANVVIAFNAATNVLTVTLTYP
Lectin alpha chain: VTSYTLNEVVPLKDVVPEWVRIGFSATTGAEFAAHEVHSWSFHSELGGTSSS
notes: conventional protein pI marker, three pI's
B2: amyloglucosidase (protein, UniProt P69328 25-640, looked up)
Glucoamylase: ATLDSWLSNEATVARTAILNNIGADGAWVSGADSGIVVASPSTDNPDYFYTWTRDSGLVLKTLVDLFRNGDTSLLSTIENYISAQAIVQGISNPSGDLSSGAGLGEPKFNVDETAYTGSWGRPQRDGPALRATAMIGFGQWLLDNGYTSTATDIVWPLVRNDLSYVAQYWNQTGYDLWEEVNGSSFFTIAVQHRALVEGSAFATAVGSSCSWCDSQAPEILCYLQSFWTGSFILANFDSSRSGKDANTLLGSIHTFDPEAACDDSTFQPCSPRALANHKEVVDSFRSIYTLNDGLSDSEAVAVGRYPEDTYYNGNPWFLCTLAAAEQLYDALYQWDKQGSLEVTDVSLDFFKALYSDAATGTYSSSSSTYSSIVDAVKTFADGFVSIVETHAASNGSMSEQYDKSDGEQLSARDLTWSYAALLTANNRRNSVVPASWGETSASSVPGTCAATSAIGTYSSVTVTSWPSIVATGGTTTTATPTGSGSVTSTSKTTATASKTSTSTSSTSCTTPTAVAVTFDLTATTTYGENIYLVGSISQLGDWETSDGIALSADKYTSSDPLWYVTVTLPAGESFEYKFIRIESDDSVEWESDPNREYTVPQACGTSTATVTDTWR
B3: equine myoglobin (protein, UniProt P68082 2-154, looked up)
Myoglobin: GLSDGEWQQVLNVWGKVEADIAGHGQEVLIRLFTGHPETLEKFDKFKHLKTEAEMKASEDLKKHGTVVLTALGGILKKKGHHEAELKPLAQSHATKHKIPIKYLEFISDAIIHVLHSKHPGDFGADAQGAMTKALELFRNDIAAKYKELGFQG
notes: conventional protein pI marker
B4: trypsinogen (protein, UniProt P00760 18-246, looked up)
pro-form: VDDDDKIVGGYTCGANTVPYQVSLNSGYHFCGGSLINSQWVVSAAHCYKSGIQVRLGEDNINVVEGNEQFISASKSIVHPSYNSNTLNNDIMLIKLKSAASLNSRVASISLPTSCASAGTQCLISGWGNTKSSGTSYPDVLKCLKAPILSDSSCKSAYPGQITSNMFCAGYLEGGKDSCQGDSGGPVVCSGKLQGIVSWGSGCAQKNKPGVYTKVCNYVSWIKQTIASN
modifications: pro-form
notes: as for B3

Details: unlabeled protein

Molecule | pI (known) of conventional protein pI marker
B1 | 7.80 and 8.00 and 8.20
B2 | 3.50
B3 | 7.00
B4 | 9.30
